Assay [1] concerns the target HLA-A*01:01. As to the kind of experiment: IEDB peptide-MHC binding, purified MHC/direct/fluorescence; filed as Kd, often an IC50 or EC50 that approximates it; ≥ and ≤ were set here for values at or beyond the usual limits of such assays.
Assay [2] has as its target HLA-A*11:01. The description is as above.
For a further assay, the target named is HLA-A*31:01. Described as above.
The target in another assay is HLA-A*69:01. The assay is described as above.
The target in the next assay is HLA-B*07:02. Described as above.
Assay [3] concerns the target HLA-B*15:01. The assay is described as above. To be noted: source organism: Mycobacterium tuberculosis.
Assay [4] addresses HLA-B*15:17. The assay is described as above.
Assay [5] deals with HLA-B*18:01. The assay is described as above.
Assay [6] concerns the target HLA-B*27:05. The assay is described as above.
Another assay addresses HLA-B*40:01. The assay is described as above.
A further assay addresses HLA-B*46:01. Described as above.
The target of another assay is HLA-B*48:01. The assay is described as above.
The target in another assay is HLA-B*57:01. Described as above.
In another assay the target is HLA-B*58:01. Described as above.
In a further assay the target is HLA-A*02:06. The assay is described as follows: IEDB peptide-MHC binding, purified MHC/competitive/fluorescence; filed as Kd, often an IC50 or EC50 that approximates it; ≥ and ≤ were set here for values at or beyond the usual limits of such assays.
Assay [7] deals with HLA-A*26:01. The description is as above.
Another assay addresses HLA-A*26:02. The description is as above.
The target of assay [8] is HLA-A*68:02. The description is as above. The note with it: source organism: Mycobacterium tuberculosis C.
A further assay has as its target HLA-A*26:03. As to the kind of experiment: IEDB peptide-MHC binding, purified MHC/direct/fluorescence; filed as Kd, often an IC50 or EC50 that approximates it; ≥ and ≤ were set here for values at or beyond the usual limits of such assays. To be noted: source organism: Burkholderia mallei ATCC 23344.
Assay [9] addresses HLA-A*68:02. Described as above. To be noted: source organism: Burkholderia mallei.
The target of assay [10] is HLA-A*01:01. As to the kind of experiment: IEDB peptide-MHC binding, purified MHC/competitive/fluorescence; filed as Kd, often an IC50 or EC50 that approximates it; ≥ and ≤ were set here for values at or beyond the usual limits of such assays. To be noted: source organism: Escherichia coli 536.
The target of assay [11] is HLA-A*02:01. Described as above. To be noted: source organism: Escherichia coli 536.
The target of assay [12] is HLA-B*15:01. Described as above.
Assay [13] has as its target HLA-B*15:17. The assay is described as above. To be noted: source organism: Escherichia coli 536.
In assay [14] the target is HLA-B*18:01. The assay is described as above. To be noted: source organism: Escherichia coli 536.
Assay [15] concerns the target HLA-B*27:05. Described as above. The note with it: source organism: Escherichia coli 536.
The target in assay [16] is HLA-A*02:01. The assay is described as follows: IEDB peptide-MHC binding, purified MHC/direct/fluorescence; filed as Kd, often an IC50 or EC50 that approximates it; ≥ and ≤ were set here for values at or beyond the usual limits of such assays. To be noted: source organism: Vibrio parahaemolyticus.
In the next assay the target is HLA-A*03:01. The description is as above. The note with it: source organism: Vibrio parahaemolyticus.
The target in assay [17] is HLA-A*26:01. Described as above. To be noted: source organism: Vibrio parahaemolyticus RIMD 2210633.
The target in another assay is HLA-B*08:02. Described as above. To be noted: source organism: Vibrio parahaemolyticus RIMD 2210633.
Another assay deals with HLA-B*39:01. The description is as above. To be noted: source organism: Vibrio parahaemolyticus RIMD 2210633.
For assay [18], the target named is HLA-A*11:01. As to the kind of experiment: IEDB peptide-MHC binding, purified MHC/competitive/fluorescence; filed as Kd, often an IC50 or EC50 that approximates it; ≥ and ≤ were set here for values at or beyond the usual limits of such assays. The note with it: source organism: Vibrio parahaemolyticus K5030.
Assay [19] concerns the target HLA-A*02:01. As to the kind of experiment: IEDB peptide-MHC binding, purified MHC/competitive/radioactivity; ≥ and ≤ were set here for values at or beyond the usual limits of such assays. To be noted: source organism: Homo sapiens.
Setting [20] is: source organism: Mycobacterium tuberculosis.
[21] abbreviates: source organism: Mycobacterium tuberculosis C.
[22] abbreviates: source organism: Burkholderia mallei.
Setting [23] is: source organism: Escherichia coli 536.
Where [24] appears, read: source organism: Vibrio parahaemolyticus.

One may read the Kd as a measure of binding affinity in units of concentration. Regarding AVFPRYHPR, the dissociation constant Kd with HLA-A*01:01 [1] (setting [20]) is at least 20 µM; in the assay with HLA-A*11:01 [2] (setting [20]), 0.038 µM; with HLA-A*31:01 (setting [20]) it was 0.0047 µM; with HLA-A*69:01 (setting [20]), at least 20 µM; with HLA-B*07:02 (setting [20]), at least 20 µM; with HLA-B*15:01 [3], at least 20 µM. In addition, the Kd in the assay with HLA-B*15:17 [4] (setting [20]), with HLA-B*18:01 [5] (setting [20]), in the assay with HLA-B*27:05 [6] (setting [20]), with HLA-B*40:01 (setting [20]), in the assay with HLA-B*46:01 (setting [20]) and in the assay with HLA-B*48:01 (setting [20]) was at least 20 µM throughout. In addition, the dissociation constant Kd with HLA-B*57:01 (setting [20]) was at least 20 µM; with HLA-B*58:01 (setting [20]), at least 20 µM; in the assay with HLA-A*02:06 (setting [21]), 2.1 µM; with HLA-A*26:01 [7] (setting [21]) it was 1.67 µM; with HLA-A*26:02 (setting [21]) it was at least 20 µM; with HLA-A*68:02 [8], 1.91 µM.

With DIIGGPCAH, the Kd with HLA-A*26:03 is 2 µM. This counts as single-digit micromolar.

For KLYPNVDFY, the Kd with HLA-A*11:01 [2] (setting [22]) was 0.225 µM; with HLA-A*31:01 (setting [22]) it was 3.63 µM; with HLA-A*68:02 [9], at least 20 µM; with HLA-A*69:01 (setting [22]), at least 20 µM; with HLA-B*07:02 (setting [22]) it was at least 20 µM; in the assay with HLA-B*40:01 (setting [22]) it was at least 20 µM. The dissociation constant (Kd) was at least 20 µM with HLA-B*46:01 (setting [22]); at least 20 µM in the assay with HLA-B*48:01 (setting [22]); 3.47 µM in the assay with HLA-A*01:01 [10]; at least 20 µM in the assay with HLA-A*02:01 [11]; 1.6 µM with HLA-A*02:06 (setting [23]); at least 20 µM with HLA-A*26:01 [7] (setting [23]). Moreover, the Kd with HLA-A*26:02 (setting [23]) was at least 20 µM; with HLA-B*15:01 [12] (setting [23]) it was 0.107 µM; with HLA-B*15:17 [13] it was 0.207 µM; with HLA-B*18:01 [14], at least 20 µM; with HLA-B*27:05 [15] it was at least 20 µM.

In the case of NSSYWRQGY, the Kd was 0.093 µM in the assay with HLA-A*01:01 [1] (setting [24]); at least 20 µM with HLA-A*02:01 [16]; at least 20 µM with HLA-A*03:01; 0.16 µM in the assay with HLA-A*26:01 [17]; at least 20 µM in the assay with HLA-A*31:01 (setting [24]); at least 20 µM with HLA-A*69:01 (setting [24]). In addition, the Kd in the assay with HLA-B*08:02 is at least 20 µM; in the assay with HLA-B*15:17 [4] (setting [24]), 0.222 µM; in the assay with HLA-B*18:01 [5] (setting [24]), at least 20 µM; with HLA-B*27:05 [6] (setting [24]) it was at least 20 µM; with HLA-B*39:01 it was at least 20 µM; with HLA-B*40:01 (setting [24]) it was at least 20 µM. Further, the dissociation constant (Kd) with HLA-B*46:01 (setting [24]), with HLA-B*48:01 (setting [24]), with HLA-B*57:01 (setting [24]), with HLA-B*58:01 (setting [24]), in the assay with HLA-A*11:01 [18] and in the assay with HLA-B*15:01 [12] (source organism: Vibrio parahaemolyticus K5030) was at least 20 µM each time.

Usually IC50 stands for the midpoint of a concentration-inhibition curve. As for RQASLSISV, the IC50 with HLA-A*02:01 [19] was determined as 0.285 µM.

With SCSRAIPQV, the IC50 with HLA-A*02:01 [19] amounted to 1.47 µM.

Source of the values: the Immune Epitope Database (IEDB).
